Test results from paper PMC4851077.

Key:
[1] = molecular target: concanavalin A extracted from Jack beans (Con A, type V, MW ≈ 104,000) (Jack bean); test: quartz crystal microbalance (QCM); layer-by-layer adsorption on Au/MPS/PDDA-coated quartz resonator; alternate immersion in Con A (1 mg/mL, pH 7.0) and GOD (1 mg/mL, pH 7.0) for 20 min each, 0.1 M Tris-HCl with 0.1 M NaCl, 1 mM MnCl2, 1 mM CaCl2; washed, dried, frequency measured in air
[2] = molecular target: glucose oxidase (GOD, E.C. 1.1.3.4, type VII, MW ≈ 160,000) (UniProt P13006); test: as above

average QCM frequency decrease for each layer [1]	average QCM frequency decrease for each layer [2]	Substance
58 Hz		glucose oxidase (GOD, E.C. 1.1.3.4, type VII, MW ≈ 160,000) (from UniProt P13006 17-605) (enzyme)
	82 Hz	concanavalin A extracted from Jack beans (Con A, type V, MW ≈ 104,000) (natural protein)
